The record followed here is patent US20230406935A1 (F STAR THERAPEUTICS, published 2023).

Read-outs that look alike come from different tables or passages of the source.

Series [1] deals with T1, Human PD-L1 expressed on cells (human, UniProt Q9NZQ7 19-290). Kind of series: cell-based or functional assay.
In series [2] the target is T1, Human PD-L1 expressed on cells. Kind of series: cell-based or functional assay. This is another data set of the same source.
Series [3] has the same target. Kind of series: cell-based or functional assay. This is another data set of the same source.
Series [4] deals with the molecule itself. Kind of series: analytical ultracentrifugation, self-association of the Fcab (monomer and dimer peaks). The protocol:
To address this, the molecules were analysed via analytical ultracentrifugation using a Beckman Optima XL-1 instrument.
These domains were then purified using protein A to remove Fc domains, anti-his to remove enzymes and finally subjected to SEC to purify the monomeric fraction.

Series [5] has as its target T2, Recombinant human PD-1 with a C-terminal human IgG tag (R&D Systems, 1086-PD) (human, UniProt Q15116 25-167).
T2 construct: also called human PD-1 Fc; biotinylated PD-1 Fc
Kind of series: SPR Biacore, PD-1 coated on the chip, Fcab in flow. From the text: (§1) The Fcab was then flowed over the chip at a 1000-fold concentration range. […] However, the Fcab did bind to PD-L1.

Series [6] has as its target T3, PD-L2 (R&D systems 1224-PL) (UniProt Q9BQ51 20-219).
T3 sequence (looked up): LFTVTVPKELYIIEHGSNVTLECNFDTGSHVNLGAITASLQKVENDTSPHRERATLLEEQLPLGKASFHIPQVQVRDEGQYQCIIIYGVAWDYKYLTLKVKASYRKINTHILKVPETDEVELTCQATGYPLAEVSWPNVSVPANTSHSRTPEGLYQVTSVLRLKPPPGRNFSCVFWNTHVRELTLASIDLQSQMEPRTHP
Kind of series: SPR Biacore, PD-L2 coated on the chip, Fcab in flow.
Source text: as §1

The target in series [7] is T4, Biotinylated hPD-L1-Fc-Avi (human, UniProt Q9NZQ7 19-238). Kind of series: cell-based RBA, blocking of hPD-L1-Fc-Avi binding to HEK293 hCD80 cells. The protocol: (§2) The ability of the Fcabs and mock mAb² to block hPD-1/hPD-L1 and hPD-L1/hCD80 interactions was tested in cell-based Receptor Binding Assays (RBA). […] The mix was incubated for another hour with HEK293 cells overexpressing either hPD-1 or hCD80.

Series [8] concerns the target T5, Monomeric His-tagged human PD-L1 (Acro biosystems PD1-H5229) (human, UniProt Q9NZQ7 19-238).
T5 construct: also called hPD-L1-his; PD-L1-his
Kind of series: SPR Biacore, captured on protein A, monomeric PD-L1-his in flow, 1:1 fit. The protocol: The monomeric PD-L1-his human antigen was flowed over the chip in titrating concentrations at a high flow rate to minimise mass transport limitations. The KDS were measured using a 1:1 fitting analysis with no refractive index correction and Rₘₐₓ set to local.

The target of series [9] is T4, Biotinylated hPD-L1-Fc-Avi. Kind of series: cell-based RBA, blocking of hPD-L1-Fc-Avi binding to HEK293 hPD-1 cells. The protocol: as §2
In series [10] the target is T1, Human PD-L1 expressed on cells. Kind of series: flow cytometry, HEK293 cells overexpressing the target, anti-human Fc 488. The protocol: (§3) Cell binding assays were performed by incubating Fcabs or mAb² proteins with either control HEK293 cells or HEK293 cells overexpressing hPD-L1 or cynomolgus PD-L1 cells for 1 hour at 4° C. Fcab/mAb binding was subsequently detected using an anti-human Fc 488 detection antibody. Fluorescent signal intensities were measured using a FACS canto.

The target of series [11] is T6, Cynomolgus PD-L1 expressed on HEK 293 cells (cynomolgus, UniProt Q9NZQ7 19-290 (human entry)).
T6 construct: also called cell-expressed cynomolgus PD-L1
The series is described as above. The protocol: as §3

Series [12] addresses T5, Monomeric His-tagged human PD-L1 (Acro …). Kind of series: SPR Biacore T200, Fcab captured on protein A chip, monomeric antigen in flow, 1:1 fit.
For series [13], the target named is T7, Monomeric cynomolgus PD-L1 (Acro Biosciences PD1-C52H4) (cynomolgus, UniProt Q9NZQ7 19-238 (human entry)).
T7 construct: also called cynomolgus monomeric PD-L1
The description is as above.

Series [14] addresses T5, Monomeric His-tagged human PD-L1 (Acro …). Kind of series: SPR Biacore T200 as Example 5.1, anti-Fab capture, monomeric hPD-L1-his. The protocol: Fcab and mAb² binding to human PD-L1 was assessed by both BIAcore and in a cell binding assay. To measure the affinity of the clones to monomeric hPD-L1-his, the mAb² were captured using an anti-Fab antibody coated on a CM5 chip (GE 28-9582-20 AC) and Fcabs were captured using a Protein A chip (GE 29127556) using a Biacore T200 (GE). To minimize mass transport effects, the capture level was minimized to 200RU and a fast flow rate of 75 μl/min was used. […] The analysis of the data was done using the Biacore T200 evaluation software. Curves subtracted against a blank flow cell and a run with no antigen were analysed using a 1:1 fitting model with no bulk analysis and Rmax analysed locally.
The selected CH3 domain sequences were subcloned and expressed in “mock” (MSL109) mAb² format with the LALA mutation in the CH2 domain, as described in Example 4.2.1, for further screening.

The target of series [15] is T4, Biotinylated hPD-L1-Fc-Avi. Kind of series: cell-based RBA (Example 8.3), blocking of hPD-L1-Fc-Avi binding to HEK293 hCD80 cells. The protocol:
(§4) The ability of the mock mAb² to block hPD-1/hPD-L1 and hPD-L1/hCD80 interactions was tested in cell-based Receptor Blocking Assays (RBA). […] The mix was incubated for another hour with HEK293 cells overexpressing either hPD-1 or hCD80.

For series [16], the target named is T5, Monomeric His-tagged human PD-L1 (Acro …). Kind of series: SPR Biacore T200, mock mAb^2 captured by anti-Fab on CM5, monomeric antigen in flow, 1:1 fit.
Series [17] has as its target T7, Monomeric cynomolgus PD-L1 (Acro …). The series is described as above.
The target in series [18] is T4, Biotinylated hPD-L1-Fc-Avi. Kind of series: cell-based RBA (Example 8.3), blocking of hPD-L1-Fc-Avi binding to HEK293 hPD-1 cells. The protocol:
as §4

Series [19] has as its target T1, Human PD-L1 expressed on cells. Kind of series: cell-based or functional assay. The source holds these as a separate data set.
For series [20] the target is unchanged. Kind of series: cell-based or functional assay. This is another data set of the same source.
The target is the same in series [21]. Kind of series: flow cytometry, HEK293 cells overexpressing the target, anti-human Fc 488. The protocol:
(§5) Cell binding assays were performed by incubating the mock mAb² with either control HEK293 cells or HEK293 cells overexpressing hPD-L1 or cynomolgus PD-L1 cells for 1 hour at 4° C. Mock mAb² binding was subsequently detected using an anti-human Fc 488 detection antibody. Fluorescent signal intensities were measured using a FACS Canto flow cytometer (BD Biosciences).
The source holds these as a separate data set.

Series [22] has as its target T6, Cynomolgus PD-L1 expressed on HEK 293 …. The series is described as above. The protocol: as §5
The source holds these as a separate data set.

T7 sequence (Q9NZQ7 other isoform, or with tags, fused parts or gaps limits assumed): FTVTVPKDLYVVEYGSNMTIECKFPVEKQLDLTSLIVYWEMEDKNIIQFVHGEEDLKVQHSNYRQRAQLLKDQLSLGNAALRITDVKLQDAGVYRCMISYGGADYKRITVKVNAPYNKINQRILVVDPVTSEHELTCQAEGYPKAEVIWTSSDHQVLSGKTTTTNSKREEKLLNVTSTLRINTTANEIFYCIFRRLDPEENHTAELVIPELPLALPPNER
T1 sequence (Q9NZQ7 19-290 limits assumed): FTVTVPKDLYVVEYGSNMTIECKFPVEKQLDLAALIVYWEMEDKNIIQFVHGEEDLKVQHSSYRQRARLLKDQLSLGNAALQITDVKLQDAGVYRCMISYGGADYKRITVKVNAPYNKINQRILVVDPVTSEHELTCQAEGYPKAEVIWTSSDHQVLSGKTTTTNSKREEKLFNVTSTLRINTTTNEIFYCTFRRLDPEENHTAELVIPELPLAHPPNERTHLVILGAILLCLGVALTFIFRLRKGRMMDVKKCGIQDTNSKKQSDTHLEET
T4 sequence (Q9NZQ7 19-238 limits assumed): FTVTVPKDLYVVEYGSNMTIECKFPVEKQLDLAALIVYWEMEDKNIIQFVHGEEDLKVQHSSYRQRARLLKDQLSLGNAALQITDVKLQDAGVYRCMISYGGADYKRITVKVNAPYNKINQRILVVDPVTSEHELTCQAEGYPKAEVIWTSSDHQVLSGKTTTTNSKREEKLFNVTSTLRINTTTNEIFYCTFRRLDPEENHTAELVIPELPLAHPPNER
T5 sequence (Q9NZQ7 19-238 limits assumed): as above
T6 sequence (Q9NZQ7 other isoform, or with tags, fused parts or gaps limits assumed): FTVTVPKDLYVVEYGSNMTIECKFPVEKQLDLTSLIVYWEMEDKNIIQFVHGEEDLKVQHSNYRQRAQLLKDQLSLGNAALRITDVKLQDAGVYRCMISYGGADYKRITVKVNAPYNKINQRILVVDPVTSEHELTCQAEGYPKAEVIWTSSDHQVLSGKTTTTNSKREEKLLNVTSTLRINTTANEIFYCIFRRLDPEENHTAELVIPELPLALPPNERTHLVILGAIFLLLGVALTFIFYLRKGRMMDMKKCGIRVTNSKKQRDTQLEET
T2 sequence (Q15116 25-167 limits assumed): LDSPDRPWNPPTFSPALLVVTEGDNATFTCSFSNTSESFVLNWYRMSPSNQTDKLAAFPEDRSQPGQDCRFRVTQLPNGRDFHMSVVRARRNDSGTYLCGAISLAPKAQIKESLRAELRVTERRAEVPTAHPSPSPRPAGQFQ

B1: FS17-33-116/4420 mAb^2 (bispecific antibody, human IgG1, kappa, L234A L235A, V domains shown)
VH: EVKLDETGGGLVQPGRPMKLSCVASGFTFSDYWMNWVRQSPEKGLEWVAQIRNKPYNYETYYSDSVKGRFTISRDDSKSSVYLQMNNLRVEDMGIYYCTGSYYGMDYWGQGTSVTVSS
VL: DVVMTQTPLSLPVSLGDQASISCRSSQSLVHSNGNTYLRWYLQKPGQSPKVLIYKVSNRFSGVPDRFSGSGSGTDFTLKISRVEAEDLGVYFCSQSTHVPWTFGGGTKLEIKR
In the case of B1, the “DO11.10 T cell activation assay EC50” value in series [1] is below 1 nM.

B2: Fcab FS17-33-116 with LALA mutation (designed binder)
chain: TCPPCPAPEAAGGPSVFLFPPKPKDTLMISRTPEVTCVVVDVSHEDPEVKFNWYVDGVEVHNAKTKPREEQYNSTYRVVSVLTVLHQDWLNGKEYKCKVSNKALPAPIEKTISKAKGQPREPQVYTLPPSRDESGYWVSLTCLVKGFYPSDIVVEWESNGEPQYWAKTTPPVLDSDGSFFLYSKLTVSNWRWQMDDFSCSVMHEALHNHYTQKSLSLSPGK
Consider B2, for which the “DO11.10 T cell activity assay EC50” value in [2] was found to be 0.28 nM. Further, the “DO11.10 T cell activation assay EC50” value in series [3] was 0.28 nM.

B3: Fcab FS17-33-116 (designed binder)
chain: TCPPCPAPELLGGPSVFLFPPKPKDTLMISRTPEVTCVVVDVSHEDPEVKFNWYVDGVEVHNAKTKPREEQYNSTYRVVSVLTVLHQDWLNGKEYKCKVSNKALPAPIEKTISKAKGQPREPQVYTLPPSRDESGYWVSLTCLVKGFYPSDIVVEWESNGEPQYWAKTTPPVLDSDGSFFLYSKLTVSNWRWQMDDFSCSVMHEALHNHYTQKSLSLSPGK
Take B3: the Kd is around 2000 nM in [4]; 0.49 nM in series [8]; 1.68 nM in series [10]; 0.665 nM in series [11]; 0.33 nM in series [12]; 0.42 nM in [13]. Moreover, the binding result in series [5] and in series [6] was “no binding” each time. The EC50 in series [7] worked out at 8.4 nM; in series [9], 9.5 nM. In [8], this molecule had a koff of 0.00044 s⁻¹. For the same molecule, in [8], the kon came out at 1.5e+06 M⁻¹ s⁻¹.

B4: FS17-33-539AA/MSL109 (bispecific antibody, human IgG1, kappa, L234A L235A)
heavy: EEQVLESGGGLVKPGGSLRLSCAASGFTFSPYSVFWVRQAPGKGLEWVSSINSDSTYKYYADSVKGRFTISRDNAENSIFLQMNSLRAEDTAVYYCARDRSYYAFSSGSLSDYYYGLDVWGQGTTVIVSSASTKGPSVFPLAPSSKSTSGGTAALGCLVKDYFPEPVTVSWNSGALTSGVHTFPAVLQSSGLYSLSSVVTVPSSSLGTQTYICNVNHKPSNTKVDKKVEPKSCDKTHTCPPCPAPEAAGGPSVFLFPPKPKDTLMISRTPEVTCVVVDVSHEDPEVKFNWYVDGVEVHNAKTKPREEQYNSTYRVVSVLTVLHQDWLNGKEYKCKVSNKALPAPIEKTISKAKGQPREPQVYTLPPSRDETGYWVSLTCLVKGFYPSDIAVEWESNGEPQYWAKTTPPVLDSDGSFFLYSKLTVSNWRWQLGDVFSCSVMHEALRNHYTQKSLSLSPGK
light: DIVMTQSPLSLSVTPGEPASISCRSSQSLLHTNGYNYLDWYVQKPGQSPQLLIYLASNRASGVPDRFSGSGSGTDFTLKISRVETEDVGVYYCMQALQIPRTFGQGTKVEIKRTVAAPSVFIFPPSDEQLKSGTASVVCLLNNFYPREAKVQWKVDNALQSGNSQESVTEQDSKDSTYSLSSTLTLSKADYEKHKVYACEVTHQGLSSPVTKSFNRGEC
As to B4, the dissociation constant Kd in [14] stood at 0.39 nM; in series [16], 0.9 nM; in series [17], 0.95 nM. In addition, the off-rate constant (koff) in series [14] worked out at 0.000427 s⁻¹. For the same molecule, the EC50 was 119 nM in series [15], 49.7 nM in series [18], 4.8 nM in series [21] and 10 nM in series [22]. The “DO11.10 EC50” value in [19] is 2.91 nM; in series [20] it was 3.14 nM.

B5: FS17-33-548AA/MSL109 (bispecific antibody, human IgG1, kappa, L234A L235A)
heavy: EEQVLESGGGLVKPGGSLRLSCAASGFTFSPYSVFWVRQAPGKGLEWVSSINSDSTYKYYADSVKGRFTISRDNAENSIFLQMNSLRAEDTAVYYCARDRSYYAFSSGSLSDYYYGLDVWGQGTTVIVSSASTKGPSVFPLAPSSKSTSGGTAALGCLVKDYFPEPVTVSWNSGALTSGVHTFPAVLQSSGLYSLSSVVTVPSSSLGTQTYICNVNHKPSNTKVDKKVEPKSCDKTHTCPPCPAPEAAGGPSVFLFPPKPKDTLMISRTPEVTCVVVDVSHEDPEVKFNWYVDGVEVHNAKTKPREEQYNSTYRVVSVLTVLHQDWLNGKEYKCKVSNKALPAPIEKTISKAKGQPREPQVYTLPPSRDEEGYWVSLTCLVKGFYPSDIAVEWESNGEPQYWAKTTPPVLDSDGSFFLYSKLTVSNWRWQLGDVFSCSVMHEALHNHYTQKSLSLSPGK
light: DIVMTQSPLSLSVTPGEPASISCRSSQSLLHTNGYNYLDWYVQKPGQSPQLLIYLASNRASGVPDRFSGSGSGTDFTLKISRVETEDVGVYYCMQALQIPRTFGQGTKVEIKRTVAAPSVFIFPPSDEQLKSGTASVVCLLNNFYPREAKVQWKVDNALQSGNSQESVTEQDSKDSTYSLSSTLTLSKADYEKHKVYACEVTHQGLSSPVTKSFNRGEC
Turning to B5, the results for the Kd in [14], in series [16] and in series [17] were 0.43 nM, 0.6 nM and 0.45 nM, respectively. Besides, the off-rate (koff) in [14] came to 0.000437 s⁻¹. The concentration for a half-maximal effect (EC50) in [15] was 130 nM; in series [18], 43.2 nM; in [21] it was 1.5 nM; in series [22], 2.1 nM. Further, the “DO11.10 EC50” value in series [19] worked out at 7.59 nM; in series [20], 8.51 nM.
